# Measurements as given in IntAct's records for PubMed 35115020.
# B1: Palmitoyltransferase ZDHHC5 (Homo sapiens), Q9C0B5 (parent)
# chain: MPAESGKRFKPSKYVPVSAAAIFLVGATTLFFAFTCPGLSLYVSPAVPIYNAIMFLFVLANFSMATFMDPGIFPRAEEDEDKEDDFRAPLYKTVEIKGIQVRMKWCATCRFYRPPRCSHCSVCDNCVEEFDHHCPWVNNCIGRRNYRYFFLFLLSLTAHIMGVFGFGLLYVLYHIEELSGVRTAVTMAVMCVAGLFFIPVAGLTGFHVVLVARGRTTNEQVTGKFRGGVNPFTNGCCNNVSRVLCSSPAPRYLGRPKKEKTIVIRPPFLRPEVSDGQITVKIMDNGIQGELRRTKSKGSLEITESQSADAEPPPPPKPDLSRYTGLRTHLGLATNEDSSLLAKDSPPTPTMYKYRPGYSSSSTSAAMPHSSSAKLSRGDSLKEPTSIAESSRHPSYRSEPSLEPESFRSPTFGKSFHFDPLSSGSRSSSLKSAQGTGFELGQLQSIRSEGTTSTSYKSLANQTRNGSLSYDSLLTPSDSPDFESVQAGPEPDPPLGYTSPFLSARLAQQREAERHPRLVPTGPTHREPSPVRYDNLSRHIVASLQEREKLLRQSPPLPGREEEPGLGDSGIQSTPGSGHAPRTSSSSDDSKRSPLGKTPLGRPAVPRFGKPDGLRGRGVGSPEPGPTAPYLGRSMSYSSQKAQPGVSETEEVALQPLLTPKDEVQLKTTYSKSNGQPKSLGSASPGPGQPPLSSPTRGGVKKVSGVGGTTYEISV
# Variants of: B1
# Conditions: with spike_sars2 S
row,Variant,effect of a mutation on the interaction
1,C134S,with no effect
